From article PMC9603128, “Physiological, Biochemical, and Structural Bioinformatic Analysis of the Multiple Inositol Dehydrogenases from Corynebacterium glutamicum” (Microbiology Spectrum, 2022)

How the values were obtained:
Experiment in all cases: purified protein
Assay type in all cases: biochemical, Corynebacterium glutamicum
Conditions in all cases: 5 mM NAD+, pH 7.5, 100 mM potassium phosphate, 1 mM MgSO4, 30 °C, substrate 0.5 to 50 mM
purified protein [1] = substrate: O[C@H]1[C@H](O)[C@H](O)[C@@H](O)[C@H](O)[C@H]1O
purified protein [2] = substrate: O[C@H]1[C@H](O)[C@@H](O)[C@H](O)[C@@H](O)[C@H]1O
purified protein [3] = substrate: O[C@H]1[C@H](O)[C@@H](O)[C@H](O)[C@@H](O)[C@@H]1O

Protein | Km (purified protein [1]) | Vmax (purified protein [1]) | kcat (purified protein [1]) | kcat/Km (purified protein [1]) | Km (purified protein [2]) | Vmax (purified protein [2]) | kcat (purified protein [2]) | kcat/Km (purified protein [2]) | Km (purified protein [3]) | Vmax (purified protein [3]) | kcat (purified protein [3]) | kcat/Km (purified protein [3])
OxiD (Corynebacterium glutamicum ATCC 13032) (protein, full length, C-terminal Strep-tag II, expressed in C. glutamicum MB001(DE3) from pPREx6-OxiD; StrepTactin and size exclusion) MTLRIALFGAGRIGHVHAANIAANPDLELVVIADPFIEGAQRLAEANGAEAVASPDEVFARDDIDGIVIGSPTSTHVDLITRAVERGIPALCEKPIDLDIEMVRACKEKIGDGASKVMLGFNRRFDPSFAAINARVANQEIGNLEQLVIISRDPAPAPKDYIAGSGGIFRDMTIHDLDMARFFVPNIVEVTATGANVFSQEIAEFNDYDQVIVTLRGSKGELINIVNSRHCSYGYDQRLEAFGSKGMLAADNIRPTTVRKHNAESTEQADPIFNFFLERYDAAYKAELATFAQGIRDGQGFSPNFEDGVIALELANACLESAQTGRTVTLNPANV | 50.6 ± 8.7 mM | 25.5 µmol/min/mg | 15.4 ± 1.7 s⁻¹ | 308 ± 20 M⁻¹ s⁻¹ | 19.6 ± 1.8 mM | 59 µmol/min/mg | 35.6 ± 1.4 s⁻¹ | 1830 ± 107 M⁻¹ s⁻¹ | – | – | – | –
IolG (Corynebacterium glutamicum ATCC 13032) (protein, full length, C-terminal Strep-tag II, expressed in C. glutamicum MB001(DE3) from pPREx6-IolG; StrepTactin and size exclusion) MSKSLRVGVVGAGAMGADHIDRINNRTSGAHISAIIEPDAARAAAAAEDAPGAQAFTRIEDAIAADAVDAVLIAVPGQFHEPVLVPALEAGLPILCEKPLTPDSESSLRIVELEQKLDKPHIQVGFMRRFDPEYNNLRKLVESGEAGELLMLRGLHRNPSVGESYTQSMLITDSVVHEFDVIPWLAGSRVVSVEVKYPKTSSLAHSGLKEPILVIMELENGVLVDVEMNVNIQFGYQVATEAVFEKGLARIGQPSGMQRWRDGEFLINEHTDFTTRFATAYDRQIQSWVDAVHEGTLVAGPNAWDGYLVALSCEAGVKALDGGVIPVDAAPRPDFYA | 61.93 ± 5.61 mM | – | 8.66 ± 0.54 s⁻¹ | 140 ± 7.4 M⁻¹ s⁻¹ | 60.9 ± 13.7 mM | 23.1 µmol/min/mg | 14 ± 1.9 s⁻¹ | 235 ± 23.4 M⁻¹ s⁻¹ | – | – | – | –
OxiB (Corynebacterium glutamicum ATCC 13032) (protein, full length, C-terminal Strep-tag II, expressed in C. glutamicum MB001(DE3) from pPREx6-OxiB; StrepTactin and size exclusion) MTQQELRVAVIGAGMAGKAHAAGYRTASSIYSTTLPNIRLVSIADANVQLAEETAARFGFERFDTSWQAIVEADDIDVVSVVVANFLHREIVEALLASGKHVLCEKPLSDTIEDAEAMIEAAGRAATNGTIARIGLTYRRSPGVAHIRDLVQSGELGKVLHVTGHYWTDYGSNAQAPISWRYKGPNGSGALADVGSHLTYLAEFVAGSDFAAVRGGQLSTVITERPKPLGAIVGHEGGAVSDEYEAVENDDIASFSGSFIGGGTATLQVSRISQGHPNTLGFEVFCEKGSVLFDFRNSGEFKIFTPATSGDISQEAGYRTITIGPKHPYWRGGLAMDAPGVGIGQNEGFVFQARAFLEEIAGISEAESLPRCATLEEGLHNMQLIDAVSQSAAAGGETVAVPAAALIPANN | – | – | – | – | 62.1 ± 12.5 mM | 5.8 µmol/min/mg | 4.2 ± 0.4 s⁻¹ | 69.1 ± 7.3 M⁻¹ s⁻¹ | 28.8 ± 7.1 mM | 0.05 µmol/min/mg | 0.03 s⁻¹ | 1.03 ± 0.11 M⁻¹ s⁻¹
OxiE (Corynebacterium glutamicum ATCC 13032) (protein, full length, C-terminal Strep-tag II, expressed in C. glutamicum MB001(DE3) from pPREx6-OxiE; StrepTactin and size exclusion) MKNITIGMVGVGRIGRMHVANMLAVAETLKERDLNIEIVLADAMPGFAEQVGADMGVKAAASVDKLIEDGVDALFIATSTAGHVDVLRKGIAAKLPMFCEKPIASDVPESLNIIREIDAAGATVQVGHQRRFDLGYQEAKRRLDAGDLGWLHSLKAVSSDAFPPPVSYCATSGGLFRDVSLHDFDIIRWLTGQDIVEVYAKGSNNGDPEIGAVGDIDTGAALLTLADGTLATAIATRYNGAGHDVRLDVMGSKDSTIVGLDEKSAFASAEEGIDFPTGESHPTFAERFADAYKNECIAFVELILGERENPCTPADAVAAAIVADAAQLSLVTGEPVKIPTVREILEGSAQPVEVRALVPSA | 54.1 ± 8.0 mM | 0.005 µmol/min/mg | 0.003 s⁻¹ | 0.06 M⁻¹ s⁻¹ | 51.6 ± 3.6 mM | 3.1 µmol/min/mg | 3.9 ± 0.3 s⁻¹ | 76.7 ± 5.2 M⁻¹ s⁻¹ | 12.4 ± 0.8 mM | 13.4 µmol/min/mg | 8.5 ± 0.1 s⁻¹ | 689 ± 41.5 M⁻¹ s⁻¹
